What is called Kd is the concentration at which binding is half-saturated. A lower Kd goes with a tighter complex.

The target in this test is protein-base BG505 trimer (BG505 DS-SOSIP-2G-3Mut-RnS7Mut) (HIV-1 (BG505)) (UniProt Q2N0S6). Briefly: SPR; 2G12 antibody immobilised on a CM5 chip (about 2,000 RU), HIV trimer loaded onto it; sCD4 injected at five concentrations (30-500 nM), single cycle, 50 uL/min; 10 mM HEPES pH 7.4, 150 mM NaCl, 3 mM EDTA, 0.05% P-20; Biacore T-200.

Take “soluble construct of CD4 containing the first two domains (sCD4) (domain or fragment)”: the Kd came to 1200 nM.

The record behind these values is article PMC10404741.
